Measured values taken from patent US7026443.

What follows are binders tested against HLA-A*1101 (human). Settings: not given.

Binder | binding affinity ratio (IC50 of standard peptide / IC50 of test peptide) (ratio to standard peptide) | relative binding ratio (IC50 of standard peptide / IC50 of test peptide) | binding affinity ratio (IC50 of the standard peptide / IC50 of the test peptide)
HDIILECVY (modifications not checked) [… (HPV16 E6, position 31, 9 amino acids)] | 0.0001 | – | –
NSNASAFLK (modifications not checked) [HPV16 E1 386 …] | 0.011 | – | –
CVYCKQQLLR (modifications not checked) [… (HPV16 E6, position 37, 10 amino acids)] | 0.0005 | – | –
ATMCRHYKR (modifications not checked) [HPV16 E1 406 …] | – | 1.5 | –
GTTLEQQYNK (modifications not checked) [… (HPV16 E6, position 92, 10 amino acids)] | 0.07 | – | –
CTELQTTIH (modifications not checked) [… (HPV16 E6, position 23, 9 amino acids)] | 0.0001 | – | –
LVRNFKSDK (modifications not checked) [HPV45 E1 215 peptide … (SEQ ID NO: 43696)] | – | 0.0002 | –
EVYDFAFR (modifications not checked) [EVYDFAFR (HPV16 E6, position 48, 8 amino acids)] | 0.0025 | – | –
NSNAAAFLK (modifications not checked) [HPV33 E1 379 peptide … (A11 motif peptide, 9 amino acids)] | – | 0.37 | –
IILECVYCK (modifications not checked) [… (HPV16 E6, position 33, 9 amino acids)] | 0.019 | – | –
FMSFLTALK (modifications not checked) [HPV16 E1 453 …] | – | 0.21 | –
DIILECVYCK (modifications not checked) [… (HPV16 E6, position 32, 10 amino acids)] | 0.021 | – | –
MLIQPPKLR (modifications not checked) [HPV31 E1 285 … (SEQ ID NO: 41814)] | – | 0.0014 | –
QMSMSQWIK (modifications not checked) [… (HPV16 E1, position 419, 9 amino acids)] | – | – | 0.026
GLSFTDLVR (modifications not checked) [HPV45 E1 209 … (SEQ ID NO: 43622)] | – | 0.0025 | –
TAAALYWYK (modifications not checked) [… (HPV16 E1, position 315, 9 amino acids)] | – | – | 20
CATMCRHYK (modifications not checked) [HPV16 E1 405 …] | – | 0.0098 | –
DCATMCRHY (modifications not checked) [HPV16 E1 404 …] | – | 0.0001 | –
ALFTAQEAK (modifications not checked) [HPV16 E1 69 …] | – | 0.4 | –
SMSQWIKYR (modifications not checked) [… (HPV16 E1, position 421, 9 amino acids)] | – | – | 0.028

Same assay, conditions: remark: other sources report otherwise

Binder | binding affinity ratio (IC50 of standard peptide / IC50 of test peptide) (ratio to standard peptide)
KFYSKISEY (modifications not checked) [… (HPV16 E6, position 75, 9 amino acids)] | 0.0002

Same assay, conditions: scale: ratio

Binder | binding affinity ratio relative to standard peptide (A*1101)
NSNAAAFLK (modifications not checked) [HPV45 E1 379 peptide … (SEQ ID NO: 43719)] | 0.37
SVAALYWYR (modifications not checked) [HPV45 E1 308 peptide … (SEQ ID NO: 43764)] | 8.8

What follows are binders tested against HLA-A*0301 (human). Settings: not given.

Binder | relative binding ratio (IC50 of standard peptide / IC50 of test peptide) (ratio to standard peptide) | relative binding ratio (IC50 of standard peptide / IC50 of test peptide) | binding affinity ratio (IC50 of standard peptide / IC50 of test peptide) | binding affinity ratio relative to standard peptide (IC50 standard / IC50 test) | binding affinity ratio (IC50 of the standard peptide / IC50 of the test peptide) | relative binding ratio (IC50 of the standard peptide / IC50 of the test peptide)
FLKSNSQAK (modifications not checked) [HPV31 E1 372 … (A03 motif peptide)] | 0.0013 | – | – | – | – | –
DCATMCRHYK (modifications not checked) [HPV16 E1 peptide … (position 404, 10 amino acids)] | 0.0044 | – | – | – | – | –
IILECVYCK (modifications not checked) [… (HPV16 E6, position 33)] | 0.0016 | – | – | – | – | –
GLSFTDLVR (modifications not checked) [HPV45 E1 peptide … (position 209, 9 amino acids)] | – | 0.0009 | – | – | – | –
KFYSKISEYR (modifications not checked) | 0.0067 | – | – | – | – | –
MLIQPPKLR (modifications not checked) [… (HPV18 E1, position 312, 9 amino acids)] | – | – | 0.0005 | – | – | –
SVAALYWYR (modifications not checked) [HPV45 E1 308 peptide … (SEQ ID NO: 37559)] | – | 2.9 | – | – | – | –
TTLEQQYNK (modifications not checked) [… (HPV16 E6, position 93)] | 0.01 | – | – | – | – | –
VFEFAFKDLF (modifications not checked) [HPV18 E6 peptide … (position 44, 10 amino acids)] | – | 0.0001 | – | – | – | –
SMSQWIKYR (modifications not checked) [HPV16 E1 421 …] | – | – | 0.69 | – | – | –
LIRCINCQK (modifications not checked) [… (HPV16 E6, position 107)] | 0.0025 | – | – | – | – | –
NSNAAAFLK (modifications not checked) [HPV45 E1 peptide … (position 379, 9 amino acids)] | – | 0.0057 | – | – | – | –
QMNMSQWIR (modifications not checked) [HPV18 E1 426-434 peptide …] | – | – | – | 0.0011 | – | –
HDIILECVY (modifications not checked) [… (HPV16 E6, position 31)] | 0.0002 | – | – | – | – | –
VVYRDSIPH (modifications not checked) [HPV18 E6 peptide … (position 54, 9 amino acids)] | – | 0.12 | – | – | – | –
TGLYNLLIR (modifications not checked) [HPV18 E6 peptide … (position 96, 9 amino acids)] | – | 0.0005 | – | – | – | –
RFHNIAGHYR (modifications not checked) [HPV18 E6 peptide … (position 126, 10 amino acids)] | – | 0.0023 | – | – | – | –
NSNAAAFLK (modifications not checked) [… (HPV18 E1, position 393, 9 amino acids)] | – | – | 0.0057 | – | – | –
FLKSNSQAK (modifications not checked) [HPV33 E1 385 peptide … (SEQ ID NO: 35888)] | – | 0.0013 | – | – | – | –
IAQLKDLLK (modifications not checked) [HPV18 E1 198 …] | – | – | 0.0003 | – | – | –

Binder | relative binding ratio (IC50 of standard peptide / IC50 of test peptide) (ratio to standard peptide) | relative binding ratio (IC50 of standard peptide / IC50 of test peptide) | binding affinity ratio (IC50 of standard peptide / IC50 of test peptide) | binding affinity ratio relative to standard peptide (IC50 standard / IC50 test) | binding affinity ratio (IC50 of the standard peptide / IC50 of the test peptide) | relative binding ratio (IC50 of the standard peptide / IC50 of the test peptide)
MLIQPPKLR (modifications not checked) [HPV31 E1 peptide … (position 285, 9 amino acids)] | 0.0005 | – | – | – | – | –
SVAALYWYR (modifications not checked) [HPV18 E1 322-330 peptide …] | – | – | – | 2.9 | – | –
RFHNIAGHY (modifications not checked) [HPV18 E6 peptide … (position 126, 9 amino acids)] | – | 0.0005 | – | – | – | –
LVRNFKSDK (modifications not checked) [… (HPV18 E1, position 229, 9 amino acids)] | – | – | 0.0005 | – | – | –
KISEYRHYCY (modifications not checked) [… (HPV16 E6, position 79)] | 0.0043 | – | – | – | – | –
NSNAAAFLK (modifications not checked) [HPV33 E1 379 peptide … (SEQ ID NO: 36047)] | – | 0.0057 | – | – | – | –
GTTLEQQYNK (modifications not checked) [HPV16 E6 position 92 peptide …] | – | – | – | – | 0.0002 | –
FITFLGALK (modifications not checked) [HPV18 E1 460 …] | – | – | 0.032 | – | – | –
LVRNFKSDK (modifications not checked) [HPV45 E1 215-223 peptide … (SEQ ID NO: 37448)] | – | – | – | – | – | 0.0005
ALLRYKCGK (modifications not checked) [HPV18 E1 peptide … (position 284, 9 amino acids)] | – | – | 0.09 | – | – | –
GLSFTDLVR (modifications not checked) [HPV18 E1 223 …] | – | – | 0.0009 | – | – | –
DIILECVYCK (modifications not checked) [HPV16 E6 position 32 peptide …] | – | – | – | – | 0.0065 | –
CTELQTTIH (modifications not checked) [HPV16 E6 position 23 peptide …] | – | – | – | – | 0.0002 | –
LLIRCINCQK (modifications not checked) [… (HPV16 E6, position 106)] | 0.021 | – | – | – | – | –
TAAALYWYK (modifications not checked) [HPV16 E1 315 …] | – | – | 0.78 | – | – | –
ALLRYKCGK (modifications not checked) [HPV45 E1 270 … (SEQ ID NO: 37205)] | – | 0.09 | – | – | – | –
NMSQWIRFR (modifications not checked) [… (HPV18 E1, position 428, 9 amino acids)] | – | – | 0.054 | – | – | –
CVYCKQQLLR (modifications not checked) [HPV16 E6 position 37 peptide …] | – | – | – | – | 0.0001 | –
CATMCKHYR (modifications not checked) [HPV18 E1 peptide … (position 412, 9 amino acids)] | – | – | 0.0012 | – | – | –

Same assay, conditions: remark: other sources report otherwise

Binder | relative binding ratio (IC50 of standard peptide / IC50 of test peptide) (ratio to standard peptide)
KFYSKISEY (modifications not checked) | 0.0015
